For test [1], the target named is T1, scCD94/NKG2A-mFc, Fc-fusion protein of murine IgG1 fused at the C-terminus with a single-chain construct of … (mouse; human, UniProt Q13241 32-179). The experiment in a line: SPR Biacore T100, sc-NKG2A-CD94-mFc immobilized, antibody 1.25-10 nM.
The target in test [2] is T1, scCD94/NKG2A-mFc, Fc-fusion protein of …. The experiment in a line: SPR Biacore T100, sc-NKG2A-CD94-mFc immobilized.
For test [3] the target is unchanged. In words: SPR Biacore T100, sc-NKG2A-CD94-mFc immobilized, binding level (RU) divided by that of chimZ199.
In test [4] the target is T2, human CD94/NKG2A receptor on cells (Ba/F3 cells over-expressing CD94/NKG2A; NKL cells) (human, UniProt Q13241 1-179).
T2 construct: whole, on cells; also called Ba/F3-CD94/NKG2A
In words: flow cytometry on Ba/F3-CD94/NKG2A cells.

Residue numbers refer to the chain shown, from its start. In names and notes the source's numbering stands.

T1 sequence (Q13241 other isoform, or with tags, fused parts or gaps): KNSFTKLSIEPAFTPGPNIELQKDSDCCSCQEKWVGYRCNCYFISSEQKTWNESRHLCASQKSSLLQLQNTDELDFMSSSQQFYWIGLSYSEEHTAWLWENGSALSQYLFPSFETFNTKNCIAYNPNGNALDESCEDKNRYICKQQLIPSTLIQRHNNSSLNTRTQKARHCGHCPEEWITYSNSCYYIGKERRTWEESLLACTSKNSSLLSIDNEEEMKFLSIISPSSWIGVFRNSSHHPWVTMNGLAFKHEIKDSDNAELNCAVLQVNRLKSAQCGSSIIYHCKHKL
T2 sequence (chain, as listed by the source, chain 1 of 2): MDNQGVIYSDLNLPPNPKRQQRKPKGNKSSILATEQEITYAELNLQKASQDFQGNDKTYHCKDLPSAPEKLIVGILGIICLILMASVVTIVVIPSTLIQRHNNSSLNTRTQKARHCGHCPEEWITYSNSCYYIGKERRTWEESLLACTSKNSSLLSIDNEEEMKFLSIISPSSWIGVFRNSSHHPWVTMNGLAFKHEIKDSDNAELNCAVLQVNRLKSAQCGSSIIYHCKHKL
T2 sequence (Q13241 whole entry, chain 2 of 2): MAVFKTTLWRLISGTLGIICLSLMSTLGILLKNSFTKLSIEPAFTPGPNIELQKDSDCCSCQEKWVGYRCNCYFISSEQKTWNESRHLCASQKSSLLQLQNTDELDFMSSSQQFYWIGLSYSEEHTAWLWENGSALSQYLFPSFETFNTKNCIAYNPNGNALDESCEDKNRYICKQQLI

B1: HumZ199 (LC: L46P) (antibody, name in Kabat numbering, V domains shown)
VH: EVQLVESGGGLVKPGGSLRLSCAASGFTFSSYAMSWVRQAPGKGLEWVSEISSGGSYTYYADSVKGRFTISRDNAKNSLYLQMNSLRAEDTAVYYCARHGDYPRFFDVWGQGTTVTVSS
VL: EIVLTQSPATLSLSPGERATLSCSASSSVSSYIYWYQQKPGQAPRPLIYLTSNLASGIPARFSGSGSGTDFTLTISSLEPEDFAVYYCQQWSGNPYTFGQGTKLEIK
notes: also called huZ199(LC:L46P); humZ199 with single back mutation L46P in the light chain
In test [1], B1 showed a Kd of 0.072 nM, a koff of 0.000122 s⁻¹ and a kon of 1.7e+06 M⁻¹ s⁻¹. For the same molecule, the “fold difference of affinity against chimeric Z199” value in test [2] came out at 2.7 fold.

B2: chimeric Z199 with a human IgG4(S241P) portion (antibody, V domains shown)
VH: EVQLVESGGGLVKPGGSLKLSCAASGFTFSSYAMSWVRQSPEKRLEWVAEISSGGSYTYYPDTVTGRFTISRDNAKNTLYLEISSLRSEDTAMYYCTRHGDYPRFFDVWGAGTTVTVSS
VL: QIVLTQSPALMSASPGEKVTMTCSASSSVSYIYWYQQKPRSSPKPWIYLTSNLASGVPARFSGSGSGTSYSLTISSMEAEDAATYYCQQWSGNPYTFGGGTKLEIKR
notes: also called chimZ199; ChimZ199
In test [1], B2 displayed a Kd of 0.0243 nM, a koff of 4.17e-05 s⁻¹ and a kon of 1.72e+06 M⁻¹ s⁻¹.

B3: chimZ199 light-chain alanine mutant L50A (antibody, human IgG4, name in Kabat numbering, V domains shown)
VH: B2 VH
VL: B2 VL with L49A
notes: Ala-scan mutant made on chimZ199 (human IgG4 constant domains); also called LC: L50A
Take B3: the “relative binding against chimZ199” value in test [3] is around 40%.

B4: chimZ199 light-chain alanine mutant P95A (antibody, human IgG4, name in Kabat numbering, V domains shown)
VH: B2 VH
VL: B2 VL with P94A
notes: Ala-scan mutant made on chimZ199 (human IgG4 constant domains); also called LC: P95A
With B4, the “relative binding against chimZ199” value in test [3] is around 40%.

B5: chimZ199 heavy-chain alanine mutant Y56A (antibody, human IgG4, name in Kabat numbering, V domains shown)
VH: B2 VH with Y57A
VL: B2 VL
notes: Ala-scan mutant made on chimZ199 (human IgG4 constant domains); Kabat numbering; also called HC: Y56A
Take B5: the “relative binding against chimZ199” value in test [3] is around 40%.

B6: chimZ199 heavy-chain alanine mutant Y98A (antibody, human IgG4, name in Kabat numbering, V domains shown)
VH: B2 VH with Y102A
VL: B2 VL
notes: Ala-scan mutant made on chimZ199 (human IgG4 constant domains); Kabat numbering; also called HC: Y98A
B6: the “relative binding against chimZ199” value in test [3] was around 40%.

B7: chimZ199 light-chain alanine mutant Y32A (antibody, human IgG4, name in Kabat numbering, V domains shown)
VH: B2 VH
VL: B2 VL with Y31A
notes: Ala-scan mutant made on chimZ199 (human IgG4 constant domains); also called LC: Y32A
For B7, in test [3], the “relative binding against chimZ199” value is around 40%.

B8: murine anti-NKG2A antibody Z199 (antibody, V domains shown)
VH: B2 VH
VL: B2 VL
notes: Mouse monoclonal antibody (Beckman Coulter IM2750) and its recombinant form recZ199 made in HEK293 cells; also called recZ199; Z199 (rec)
Regarding B8, the binding result in test [4] is “binds”.

B9: chimZ199 heavy-chain alanine mutant P99A (antibody, human IgG4, name in Kabat numbering, V domains shown)
VH: B2 VH with P103A
VL: B2 VL
notes: Ala-scan mutant made on chimZ199 (human IgG4 constant domains); Kabat numbering; also called HC: P99A
Regarding B9, the “relative binding against chimZ199” value in test [3] was around 40%.

These data come from US20110052606A1 (Novo Nordisk, published 2011).
